Experimental findings from PMC8155012, “Architecture of the Sema3A/PlexinA4/Neuropilin tripartite complex” (Nature Communications, 2021) are described below.

Where a chain is given by its changes, count along the chain named. Numbers in names are those of the source.

The target of assay [1] is T1, FLAG-tagged PlexinA4 extracellular region (mouse, UniProt Q80UG2 33-1226).
T1 construct: mouse PlexinA4 residues 33–1226, extracellular region; FLAG inserted immediately after the signal peptide; also called PlexinA4-WT; source: Expi293F, purified from medium (Ni-NTA, Superose 6); not shown: FLAG, N-terminal, kept
T1 sequence (looked up): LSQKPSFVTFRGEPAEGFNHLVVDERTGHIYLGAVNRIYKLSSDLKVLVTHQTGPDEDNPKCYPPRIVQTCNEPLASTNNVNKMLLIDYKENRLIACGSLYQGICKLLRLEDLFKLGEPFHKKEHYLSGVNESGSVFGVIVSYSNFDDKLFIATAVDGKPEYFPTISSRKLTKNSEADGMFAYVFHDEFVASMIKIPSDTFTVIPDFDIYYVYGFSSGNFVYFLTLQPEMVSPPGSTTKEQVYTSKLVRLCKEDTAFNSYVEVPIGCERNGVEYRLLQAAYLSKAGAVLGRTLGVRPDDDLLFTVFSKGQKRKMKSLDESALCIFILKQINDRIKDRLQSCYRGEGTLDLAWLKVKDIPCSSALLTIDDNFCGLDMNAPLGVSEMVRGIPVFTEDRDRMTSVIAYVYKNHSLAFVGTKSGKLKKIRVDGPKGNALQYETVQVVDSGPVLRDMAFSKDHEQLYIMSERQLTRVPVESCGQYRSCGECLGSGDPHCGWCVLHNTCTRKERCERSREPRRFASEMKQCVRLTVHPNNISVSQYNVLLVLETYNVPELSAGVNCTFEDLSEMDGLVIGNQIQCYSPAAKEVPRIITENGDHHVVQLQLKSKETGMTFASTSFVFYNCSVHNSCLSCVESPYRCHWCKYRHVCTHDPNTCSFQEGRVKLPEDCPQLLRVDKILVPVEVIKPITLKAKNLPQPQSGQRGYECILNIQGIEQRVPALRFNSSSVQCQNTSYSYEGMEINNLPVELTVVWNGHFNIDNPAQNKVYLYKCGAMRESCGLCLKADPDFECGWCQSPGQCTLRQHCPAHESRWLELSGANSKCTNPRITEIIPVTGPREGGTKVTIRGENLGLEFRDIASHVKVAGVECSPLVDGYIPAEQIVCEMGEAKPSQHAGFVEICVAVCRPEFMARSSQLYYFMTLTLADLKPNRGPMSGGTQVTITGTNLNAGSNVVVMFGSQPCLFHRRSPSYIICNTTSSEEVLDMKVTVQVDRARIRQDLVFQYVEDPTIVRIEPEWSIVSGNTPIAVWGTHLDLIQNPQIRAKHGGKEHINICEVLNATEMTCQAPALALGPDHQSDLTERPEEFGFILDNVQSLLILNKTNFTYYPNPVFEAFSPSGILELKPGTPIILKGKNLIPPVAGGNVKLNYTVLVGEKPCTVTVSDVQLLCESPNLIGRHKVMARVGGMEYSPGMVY
The assay is described as follows: pull-down; FLAG-tagged PlexinA4 (20 µg) on anti-FLAG antibody resin; Nrp1 and Sema3A, 30 µg each, added together; 20 mM HEPES (pH 7.5), 150 mM NaCl, 1 mM CaCl2, 4 °C, 1 h; SDS-PAGE, Coomassie blue. The conditions noted are these: both partners purified.

For assay [2], the target named is T2, FLAG-tagged PlexinA4 extracellular region K343E (mouse, UniProt Q80UG2 33-1226, K343E).
T2 construct: mouse PlexinA4 residues 33–1226, extracellular region, K343E; also called PlexinA4-K343E; source: Expi293F, purified from medium (Ni-NTA, Superose 6); not shown: FLAG, N-terminal, kept
T2 sequence (looked up): T1 sequence (looked up) with K311E
The description is as above. The conditions noted are these: both partners purified.

B1: Nrp1-a1a2b1b2 (receptor, mouse, UniProt P97333 22-588, looked up)
chain: FRSDKCGGTIKIENPGYLTSPGYPHSYHPSEKCEWLIQAPEPYQRIMINFNPHFDLEDRDCKYDYVEVIDGENEGGRLWGKFCGKIAPSPVVSSGPFLFIKFVSDYETHGAGFSIRYEIFKRGPECSQNYTAPTGVIKSPGFPEKYPNSLECTYIIFAPKMSEIILEFESFDLEQDSNPPGGMFCRYDRLEIWDGFPEVGPHIGRYCGQKTPGRIRSSSGVLSMVFYTDSAIAKEGFSANYSVLQSSISEDFKCMEALGMESGEIHSDQITASSQYGTNWSVERSRLNYPENGWTPGEDSYKEWIQVDLGLLRFVTAVGTQGAISKETKKKYYVKTYRVDISSNGEDWISLKEGNKAIIFQGNTNPTDVVLGVFSKPLITRFVRIKPVSWETGISMRFEVYGCKITDYPCSGMLGMVSGLISDSQITASNQADRNWMPENIRLVTSRTGWALPPSPHPYTNEWLQVDLGDEKIVRGVIIQGGKHRENKVFMRKFKIAYSNNGSDWKTIMDDSKRKAKSFEGNNNYDTPELRTFSPLSTRFIRIYPERATHSGLGLRMELLGCEVEAP
notes: mouse Neuropilin 1 residues 22–588, domains a1, a2, b1 and b2; also called MAM-domain truncated version of Nrp1; Nrp1-WT; source: Expi293F, transfected alone or co-expressed with Sema3A and PlexinA4, purified from medium (Ni-NTA, Superose 6)
In the case of B1, the binding result in assay [1] and in assay [2] was “binds” throughout.

B2: Nrp1-a1a2b1b2 A252E (receptor, mouse, UniProt P97333 22-588, looked up)
chain: B1 chain with A231E
notes: mouse Neuropilin 1 residues 22–588 (a1a2b1b2) with A252E; also called Nrp1-A252E; A252E mutant; source: Expi293F, purified from medium (Ni-NTA, Superose 6)
Take B2: the binding result in assay [1] is on record as “binds”.

B3: Nrp1-a1a2b1b2 E128R (receptor, mouse, UniProt P97333 22-588, looked up)
chain: B1 chain with E107R
notes: mouse Neuropilin 1 residues 22–588 (a1a2b1b2) with E128R; also called Nrp1-E128R; source: Expi293F, purified from medium (Ni-NTA, Superose 6)
As to B3, the binding result in assay [1] is on record as “binds”.

B4: Nrp1-a1a2b1b2 S251E (receptor, mouse, UniProt P97333 22-588, looked up)
chain: B1 chain with S230E
notes: mouse Neuropilin 1 residues 22–588 (a1a2b1b2) with S251E; also called Nrp1-S251E; source: Expi293F, purified from medium (Ni-NTA, Superose 6)
As to B4, the binding result in assay [1] is reported as “binds”.

B5: Nrp1-a1a2b1b2 H74A (receptor, mouse, UniProt P97333 22-588, looked up)
chain: B1 chain with H53A
notes: mouse Neuropilin 1 residues 22–588 (a1a2b1b2) with H74A; also called H74A mutation of Nrp1; source: Expi293F, purified from medium (Ni-NTA, Superose 6)
In the case of B5, in assay [1], the binding result is “binds”.

B6: Sema3A (21–770) (ligand, mouse, UniProt O08665 21-770, looked up)
chain: NYANGKNNVPRLKLSYKEMLESNNVITFNGLANSSSYHTFLLDEERSRLYVGAKDHIFSFNLVNIKDFQKIVWPVSYTRRDECKWAGKDILKECANFIKVLEAYNQTHLYACGTGAFHPICTYIEVGHHPEDNIFKLQDSHFENGRGKSPYDPKLLTASLLIDGELYSGTAADFMGRDFAIFRTLGHHHPIRTEQHDSRWLNDPRFISAHLIPESDNPEDDKVYFFFRENAIDGEHSGKATHARIGQICKNDFGGHRSLVNKWTTFLKARLICSVPGPNGIDTHFDELQDVFLMNSKDPKNPIVYGVFTTSSNIFKGSAVCMYSMSDVRRVFLGPYAHRDGPNYQWVPYQGRVPYPRPGTCPSKTFGGFDSTKDLPDDVITFARSHPAMYNPVFPINNRPIMIKTDVNYQFTQIVVDRVDAEDGQYDVMFIGTDVGTVLKVVSVPKETWHDLEEILLEEMTVFREPTTISAMELSTKQQQLYIGSTAGVAQLPLHRCDIYGKACAECCLARDPYCAWDGSSCSRYFPTAKARTRAQDIRNGDPLTHCSDLQHHDNHHGPSLEERIIYGVENSSTFLECSPKSQRALVYWQFQRRNEDRKEEIRMGDHIIRTEQGLLLRSLQKKDSGNYLCHAVEHGFMQTLLKVTLEVIDTEHLEELLHKDDDGDGSKIKEMSSSMTPSQKVWYRDFMQLINHPNLNTMDEFCEQVWKRDAAQAAQRPGHSQGSSNKWKHMQESKKGANRATHEFERAPR
notes: mouse Sema3A residues 21–770, ending at Arg770; internal furin sites mutated; without the A106K mutation; PDB 7M0R holds the A106K form; also called Sema3A-WT; wild-type Sema3A; source: Expi293F, purified from medium (Ni-NTA, Superose 6)
On to B6, for which the binding result in assay [1] and in assay [2] was “binds” throughout.

B7: Sema3A (21–770) K497E (ligand, mouse, UniProt O08665 21-770, looked up)
chain: B6 chain with K477E
notes: mouse Sema3A residues 21–770 with K497E; internal furin sites mutated; without A106K; also called Sema3A-K497E; Seme3A-K497E; source: Expi293F, purified from medium (Ni-NTA, Superose 6)
For B7, in assay [1], the binding result is reported as “binds”.

B8: Sema3A (21–770) F386A (ligand, mouse, UniProt O08665 21-770, looked up)
chain: B6 chain with F366A
notes: mouse Sema3A residues 21–770 with F386A; internal furin sites mutated; without A106K; also called F386A mutation of Sema3A; source: Expi293F, purified from medium (Ni-NTA, Superose 6)
Consider B8, for which, in assay [1], the binding result is “binds”.
